Where no end group is shown, it is not given here. The star is where a group is joined. Biotin = O=C1N[C@H]2[C@H](CS[C@H]2CCCCC(=O)*)N1
B1: RbK810me1 peptide (biotin-GNIYISPLK[me]SPYKISEG) (peptide)
peptide: Biotin-GNIYISPLK(Me)SPYKISEG
notes: retinoblastoma protein (pRb), stretch around K810, K810 mono-methylated; also called mono-methylated K810 pRb peptide; biotinylated RbK810me1; source: synthetic peptide

Key:
[1] = target: T1, His-PHF20L1 tudor 1 (UniProt A8MW92 11-71); test: BLI; peptides immobilised; His-PHF20L1 tudor 1 or full-length His-PHF20L1 in seven 2.5-fold dilutions from 200 μM; 250 s association, 250 s dissociation; conditions: both partners purified
T1 construct: PHD-finger protein 20-like 1 (PHF20L1), tudor 1 domain; the GST construct of tudor 1 is 1-74; also called pET28a-PHF20L1 tudor 1; source: E. coli BL21 (DE3), purified
T1 sequence (looked up): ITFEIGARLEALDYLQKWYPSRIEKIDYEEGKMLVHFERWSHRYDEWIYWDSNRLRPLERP

[2] = target: B1; test: as above; conditions: both partners purified

B1
Kd [1]: 28 µM

B2: His-PHF20L1 (full length) (natural protein)
chain: MSKKPPNRPGITFEIGARLEALDYLQKWYPSRIEKIDYEEGKMLVHFERWSHRYDEWIYWDSNRLRPLERPALRKEGLKDEEDFFDFKAGEEVLARWTDCRYYPAKIEAINKEGTFTVQFYDGVIRCLKRMHIKAMPEDAKGQFLFQVKSQHPLSWCCPIDPAGSCNQSMGSEDWIALVKAAAAAAAKNKTGSKPRTSANSNKDKDKDERKWFKVPSKKEETSTCIATPDVEKKEDLPTSSETFVGLHVENVPKMVFPQPESTLSNKRKNNQGNSFQAKRARLNKITGLLASKAVGVDGAEKKEDYNETAPMLEQV
Kd [2]: 34 µM
